We go through seven molecules from US20240360436A1 (DDBIO, published 2024).

The labels stand for the following.
B1: DDBK003-2 (Fab, V domains shown)
VH: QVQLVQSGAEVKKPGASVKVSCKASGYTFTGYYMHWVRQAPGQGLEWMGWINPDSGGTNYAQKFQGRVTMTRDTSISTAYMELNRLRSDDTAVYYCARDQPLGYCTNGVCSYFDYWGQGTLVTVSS
VL: DIQMTQSPSSVSASVGDRVTITCRATQDIRPWLAWYQQRPGKAPQLLIYRTSTLQSGVPSRFSGSGSGTDFTLTISNLQPEDFATYYCQHAKIFPITFGQGTRLEIKR
notes: Light-chain replacement clone of Selicrelumab; also expressed as full-length antibody (KLC/IgG1)
B2: DDBK003-3 (Fab, V domains shown)
VH: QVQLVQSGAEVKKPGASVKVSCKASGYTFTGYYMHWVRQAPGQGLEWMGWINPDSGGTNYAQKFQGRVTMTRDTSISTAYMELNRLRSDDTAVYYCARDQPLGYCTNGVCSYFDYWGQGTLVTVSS
VL: DIQMTQSPSSVSASIGDRVTVTCRASQAIGSWVAWYQQKPGKVPKLLIYSASKIQSGVPSRFSGSGSGTDFTLTISSLQPEDFATYYCQQANSFPITFGQGTLLEIKR
notes: Light-chain replacement clone of Selicrelumab; also expressed as KLC/IgG1
B3: Selicrelumab (Fab, V domains shown)
VH: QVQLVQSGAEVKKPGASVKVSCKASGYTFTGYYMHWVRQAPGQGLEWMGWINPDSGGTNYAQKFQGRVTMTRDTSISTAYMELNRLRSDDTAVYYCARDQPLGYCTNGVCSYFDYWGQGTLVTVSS
VL: DIQMTQSPSSVSASVGDRVTITCRASQGIYSWLAWYQQKPGKAPNLLIYTASTLQSGVPSRFSGSGSGTDFTLTISSLQPEDFATYYCQQANIFPLTFGGGTKVEIKR
notes: Also expressed as full-length antibody; also called #1; Positive antibody
B4: DDBK003-12 (Fab, V domains shown)
VH: QVQLQESGPGLVKPSETLSLTCNVSGYSITRGYFWGWIRQPPGKGLEWIGSIYQSGAARYNPSLQSRVTLSVDTSKNQFSLKLTSVTAADTAVYYCARDAATQVRGSWYNGYYFDPWGQGTLVTVSS
VL: DIQMTQSPSSVSASVGDRVTITCRASQGIYSWLAWYQQKPGKAPNLLIYTASTLQSGVPSRFSGSGSGTDFTLTISSLQPEDFATYYCQQANIFPLTFGGGTKVEIKR
notes: Heavy-chain replacement clone of Selicrelumab; also expressed as KLC/IgG1
B5: DDBK003-14 (Fab, V domains shown)
VH: QVQLVESGAEVKKPGSSVKVSCKASGGTFSASAISWVRQAPGQGLEWMGGIFPILGSANYAQKFQGRVTITADESTSTAYMELSSLRSEDTAVYYCARDLAGYNYGFFGYWGRGTLVTVSS
VL: DIQMTQSPSSVSASVGDRVTITCRASQGINSWLAWYQQKPGRAPKLLIYTASTLQSGVPSRFSGSGSGTDFTLTISSLQPEDFATYYCQQAKSFPLTFGGGTKVEIKR
notes: Light- and heavy-chain double replacement clone of Selicrelumab; also expressed as KLC/IgG1
B6: DDBK003-13 (Fab, V domains shown)
VH: EVQLVQSGPGLVRPSETLSLTCSASGGSVSSASDLWGWIRQAPGKGLEWIGNIYYLGKTDYNPSLGGRVSITMDKSKNQFSLRLSSVTAADTAMYYCAKRSTLPMRGFFVSWGQGTTVTVSS
VL: DIQMTQSPSSVSASVGDRVTITCRASQGIYSWLAWYQQKPGKAPNLLIYTASTLQSGVPSRFSGSGSGTDFTLTISSLQPEDFATYYCQQANIFPLTFGGGTKVEIKR
notes: as for B4
B7: DDBK003-16 (Fab, V domains shown)
VH: QVQLVESGAEVKKPGSSVKVSCKASGGTFSASAISWVRQAPGQGLEWMGGIFPILGSANYAQKFQGRVTITADESTSTAYMELSSLRSEDTAVYYCARDLAGYNYGFFGYWGRGTLVTVSS
VL: DIQMTQSPSSVSASVGDRVTITCRASQGISSWLAWYQQKPGKAPKLLIYAASSLQSGVPSRFSGSGSGTDFTLTISSLQPEDFATYYCQQANSFPLTFGGGTKLEIKR
notes: as for B5

The target in this assay is T1, CD40 antigen (biotin-label-free, AcroBio Cat #: CDO-H5253) (UniProt P25942 21-193).
T1 construct: Bought protein; A biotin-labeled form (CDO-H82E8) was used for panning only; also called CD40 antigens
T1 sequence (P25942 21-193 limits assumed): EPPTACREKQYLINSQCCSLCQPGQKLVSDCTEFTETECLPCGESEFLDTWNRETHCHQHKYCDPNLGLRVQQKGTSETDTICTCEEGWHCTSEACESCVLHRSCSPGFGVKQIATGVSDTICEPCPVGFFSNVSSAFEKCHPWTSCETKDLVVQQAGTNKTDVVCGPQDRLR
The experiment in a line: ELISA, CD40 antigen coated, anti-flag-HRP, OD405. In general terms: In an ELISA, binding on a coated surface is turned into a signal by an enzyme label.
B1 yielded an ELISA reading of 3.15 OD405.
Molecule B2 gave an ELISA reading of 2.87 OD405.
B3 yielded an ELISA reading of 2.92 OD405.
Turning to B4, the ELISA reading is 3.22 OD405.
The value for B5 was 2.02 OD405; that for B6 was 3.33 OD405.
The value for B7 was 1.93 OD405.
